We go through 2 molecules from patent US6835814 (Eli Lilly, dated 2004).

Broadly, the Kd is the free concentration of one partner at which half of the binding sites on the other are occupied at equilibrium, for simple one-to-one binding.

To fix the notation:
B1: FasLigand (monomer) (ligand, UniProt P48023 103-281, looked up)
chain: QLFHLQKELAELRESTSQMHTASSLEKQIGHPSPPPEKKELRKVAHLTGKSNSRSMPLEWEDTYGIVLLSGVKYKKGGLVINETGLYFVYSKVYFRGQSCNNLPLSHKVYMRNSKYPQDLVMMEGKMMSYCTTGQMWARSSYLGAVFNLTSADHLYVNVSELSLVNFEESQTFFGLYKL
notes: Immobilized on a CM5 chip by amine coupling and printed as 'FasLigand (monomer)'; also called Fas Ligand (Kamiya Biomedical Company)

The target in test [1] is T1, FLINT (FAS Ligand Inhibitory Protein), mature human FLINT (human, UniProt O95407 30-300).
T1 construct: also called mature FLINT
T1 sequence: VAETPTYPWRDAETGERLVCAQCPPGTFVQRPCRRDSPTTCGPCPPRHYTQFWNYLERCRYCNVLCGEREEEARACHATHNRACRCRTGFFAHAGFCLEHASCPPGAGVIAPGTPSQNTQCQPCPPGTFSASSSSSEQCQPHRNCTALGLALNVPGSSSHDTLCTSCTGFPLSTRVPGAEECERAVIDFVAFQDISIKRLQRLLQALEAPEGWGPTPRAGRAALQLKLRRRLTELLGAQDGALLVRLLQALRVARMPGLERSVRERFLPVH
The test can be described thus: SPR (Biacore 2000), FasLigand immobilized on CM5 chip, FLINT in solution. Here is the method:
(§1) FasL or the FLINT analog are immobilized through their primary amine group on lysine residues onto carboxymethyldextran polymer attached to a gold surface (Sensor Chip CM5). Immobilization is carried out using the amine coupling kit (Biacore) according to the manufacturer's protocol. Briefly, 100 µl of either FasL or FLINT analog solutions (10–25 µg/ml in sodium acetate buffer 20 mM, pH 5.0) is loaded onto an activated CM5 chip. After coupling, excess reactive groups on the surface are deactivated with 1M ethanolamine hydrochloride pH 8.5. The chip is then washed with a sodium acetate buffer 20 mM, pH 5.0 to remove non-covalently bound material.
(§2) To analyze the interaction between FasL and FLINT analogs, solutions containing the FLINT analogs are passed over the chip with PasL immobilized thereon. The amount of the FLINT analog associated with FasL is determined by measuring the surface plasmon resonance signal (in responce units, RU). Typically, FLINT analog solutions at different concentrations in HBS-ET buffer are loaded on the sensor chip for 10 minutes at a flow rate of 5 µl/min. […]
(§3) The data is evaluated and binding parameters determined using BIA evaluation 3.0.2 software (Biacore). The Kd for the interaction between FLINT and FasL and between FasL and Fas was determined using the protocols described above.
(In general: SPR reads the build-up and loss of mass on a sensor chip optically.)

The test “FasLigand (monomer)” concerns the target B1. The test can be described thus: SPR (Biacore 2000), FasLigand immobilized on CM5 chip, Fas in solution. Here is the method:
as §1, §2, §3

B1 gave a Kd in test [1] of 113 nM.

B2: Fas/Fc chimera (R&D Systems) (Fc fusion, UniProt P25445 26-173, looked up)
chain: QVTDINSKGLELRKTVTTVETQNLEGLHHDGQFCHKPCPPGERKARDCTVNGDEPDCVPCQEGKEYTDKAHFSSKCRRCRLCDEGHGLEVEINCTRTQNTKCRCKPNFFCNSTVCEHCDPCTKCEHGIIKECTLTSNTKCKEEGSRSN
notes: The result line prints only 'Fas'; also called Pas/Fc chimera; Fc part of the bought chimera not given; not described
In the test with FasLigand (monomer), B2 had a dissociation constant Kd of 162 nM.
